US20250339569A1 (3B PHARMACEUTICALS, published 2025)
Starred links: 1 amine or outer side, 2 acyl side, 3 side chain; linkers in the order of their positions; H or OH if unused. Positions of bridges follow the written chain, without caps; N, C: chain ends. Non-standard residues stand in square brackets, D forms with d. Primed or numbered codes have the meaning given here. *: point of attachment. Af3(DImAc) = 3-aminophenylalanine acylated on the ring amine with 2-{2,5-dioxo-octahydroimidazo[4,5-d]imidazolidin-1-yl}acetic acid, O=C(CN1C(=O)NC2NC(=O)NC21)Nc1cccc(C[C@H](N[*:1])C(=O)[*:2])c1; DOTA(In) = O=C1CN2CCN3CCN(CC(=O)*)CCN(CC2)CC(=O)[O][In]([O]1)[O]C(=O)C3; APAc″ = 2-(4-(amino)piperidin-1-yl)acetic acid, NC1CCN(CC(=O)*)CC1; DOTA = O=C(O)CN1CCN(CC(=O)O)CCN(CC(=O)*)CCN(CC(=O)O)CC1; Phe(4-CF3) = N[C@@H](Cc1ccc(C(F)(F)F)cc1)C(=O)O; Phe(4-I) = N[C@@H](Cc1ccc(I)cc1)C(=O)O; mXylylene = c1cc(C[*:1])cc(C[*:2])c1; Cha = N[C@@H](CC1CCCCC1)C(=O)O; 4Amb = NCc1ccc(C(=O)O)cc1; AGLU′ = not defined here; 4Amc = not defined here; APAc = not defined here; Inp′ = not defined here; Dap = NC[C@H](N)C(=O)O; Bn = c1ccc(C*)cc1

Assays:
[1] = biological target: T1, Fc-fusion protein of human carbonic anhydrase IX (human, UniProt Q16790 38-414); assay: SPR, captured hCAIX-Fc; pKD category A: >8.0
[2] = biological target: T1, Fc-fusion protein of human carbonic …; assay: SPR, captured hCAIX-Fc; t1/2 category C: 2.1-5.0 min
Description: Stock solutions of test compounds were prepared by dissolving each compound in DMSO. DMSO stock solution were diluted 1:1000 in Running Buffer without DMSO. […] SPR binding analyses were performed in Single Cycle Kinetic (SCK) mode at 25° C.
For each test compound, SPR raw data in the form of resonance units (RU) were plotted as sensorgrams using the Biacore™ T200 control software. The signal from the blank sensorgram was subtracted from that of the test compound sensorgram (blank corrected). The blank corrected sensorgram was corrected for baseline drift by subtracting the sensorgram of a SCK run without the test compound (running buffer only). […] Raw data and fit results were imported as text files in IDBS. The pKD value (negative decadic logarithm of dissociation constant) was calculated in the IDBS excel template.

[3] = biological target: human carbonic anhydrase 9 (CAIX) (human, UniProt Q16790 38-459); assay: FACS competition on HT-29 cells, competitor tracer 3BP-2776; category B = pIC50 7.1-8.0
Description: CAIX-expressing human HT-29 colorectal cancer cells (DSMZ, RRID: CVCL_0320) were cultured in McCoys's 5A modified medium (Biochrom, #F1015) including 10% fetal calf serum (FCS), 2 mM L-glutamine, 100 U/ml penicillin and 100 μg/mL streptomycin. Cells were detached with Accutase (Biolegend, #423201) and washed in FACS buffer (PBS including 1% FCS). Cells were diluted in FACS buffer to a final concentration of 500.000 cells per ml. 200 μL of the cell suspension were transferred to a u-shaped non-binding 96-well plate (Greiner) and cells were washed in ice-cold FACS buffer.
When biotinylated compounds were used an additional incubation step with 1 μg/mL APC-Streptavidin (Miltenyi; #130-106-791) in 50 μL FACS buffer for 30 minutes on ice was performed.
Cells were washed twice with ice-cold FACS buffer and analyzed in an Attune NxT flow cytometer (Thermo Fisher). Median fluorescence intensities (MFI) of the APC/Cy5-channel were calculated by Attune NxT software.

Row | pKD [1] [pkd] | t1/2 (half-life of the complex, SPR) [2] [min] | pIC50 [3] [pic50] | Binder
1 | > 8 | 2.1 to 5 |  | {DOTA-4Amc}-DCE[dP]DWLTW[Dap]C-NH2 (lactam 10-1; linker 2-11 via mXylylene; reading uncertain) [3BP-4258]
2 | > 8 | 2.1 to 5 |  | {DOTA-APAc″}-DCE[dP]DWLTW[Dap]C-NH2 (lactam 10-1; linker 2-11 via mXylylene) [3BP-4254]
3 | > 8 | 2.1 to 5 |  | {DOTA-APAc″}-VYCE[dP]D[Phe(4-CF3)]LTWSC-NH2 (linker 3-12 via mXylylene; not fully specified) [3BP-4139]
4 | > 8 | 2.1 to 5 |  | {DOTA-Inp′}-DCE[dP]DWLTW[Dap]C-NH2 (lactam 10-1; linker 2-11 via mXylylene) [3BP-4256]
5 |  |  | 7.1 to 8 | {DOTA-APAc}-VYCE[dP]KWLEWSC-NH2 (linker 3-12 via mXylylene; lactam 6-9; reading uncertain) [3BP-3933]
6 |  |  | 7.1 to 8 | {DOTA(In)-APAc}-VYCE[dP]KWLEWSC-NH2 (linker 3-12 via mXylylene; lactam 6-9; reading uncertain; also: indium complexed by DOTA) [3BP-4052]
7 | > 8 | 2.1 to 5 |  | {DOTA-APAc″}-YCE[dP]DWLTWSC-NH2 (linker 2-11 via mXylylene) [3BP-3867]
8 | > 8 | 2.1 to 5 |  | {DOTA}-YCE[dP]DWLTWSC-NH2 (linker 2-11 via mXylylene; also: ['indium complexed by DOTA']) [3BP-3906]
9 | > 8 | 2.1 to 5 |  | {DOTA}-SDCE[dP]DWLTW[Dap]C-NH2 (lactam 11-2; linker 3-12 via mXylylene; SMILES CC(C)C[C@@H]1NC(=O)[C@H](Cc2c[nH]c3ccccc23)NC(=O)[C@H](CC(=O)O)NC(=O)[C@H]2CCCN2C(=O)[C@H](CCC(=O)O)NC(=O)[C@@H]2CSCc3cccc(c3)CSC[C@@H](C(N)=O)NC(=O)[C@H](CNC(=O)C[C@H](NC(=O)[C@H](CO)NC(=O)CN3CCN(CC(=O)O)CCN(CC(=O)O)CCN(CC(=O)O)CC3)C(=O)N2)NC(=O)[C@H](Cc2c[nH]c3ccccc23)NC(=O)[C@H]([C@@H](C)O)NC1=O) [3BP-4257]

The next lines start with the binder.

Row | Binder | pKD [1] [pkd] | t1/2 (half-life of the complex, SPR) [2] [min] | pIC50 [3] [pic50]
10 | {DOTA-4Amb}-DCE[dP]DWLTW[Dap]C-NH2 (lactam 10-1; linker 2-11 via mXylylene; SMILES CC(C)C[C@@H]1NC(=O)[C@H](Cc2c[nH]c3ccccc23)NC(=O)[C@H](CC(=O)O)NC(=O)[C@H]2CCCN2C(=O)[C@H](CCC(=O)O)NC(=O)[C@@H]2CSCc3cccc(c3)CSC[C@@H](C(N)=O)NC(=O)[C@H](CNC(=O)C[C@H](NC(=O)c3ccc(CNC(=O)CN4CCN(CC(=O)O)CCN(CC(=O)O)CCN(CC(=O)O)CC4)cc3)C(=O)N2)NC(=O)[C@H](Cc2c[nH]c3ccccc23)NC(=O)[C@H]([C@@H](C)O)NC1=O) [3BP-4261] | > 8 | 2.1 to 5 | 
11 | {DOTA}-YCE[dP]KWLEWSC-NH2 (linker 2-11 via mXylylene; lactam 5-8; SMILES CC(C)C[C@@H]1NC(=O)[C@H](Cc2c[nH]c3ccccc23)NC(=O)[C@@H]2CCCCNC(=O)CC[C@H](NC1=O)C(=O)N[C@@H](Cc1c[nH]c3ccccc13)C(=O)N[C@@H](CO)C(=O)N[C@H](C(N)=O)CSCc1cccc(c1)CSC[C@H](NC(=O)[C@H](Cc1ccc(O)cc1)NC(=O)CN1CCN(CC(=O)O)CCN(CC(=O)O)CCN(CC(=O)O)CC1)C(=O)N[C@@H](CCC(=O)O)C(=O)N1CCC[C@@H]1C(=O)N2) [3BP-3934] | > 8 | 2.1 to 5 | 
12 | {DOTA-Gab}-DCE[dP]DWLTW[Dap]C-NH2 (lactam 1-10; linker 2-11 via mXylylene) [3BP-4263] | > 8 | 2.1 to 5 | 
13 | Ac-VYCK[dP]DWLEWSC-NH2 (linker 3-12 via mXylylene; lactam 4-9; SMILES CC(=O)N[C@H](C(=O)N[C@@H](Cc1ccc(O)cc1)C(=O)N[C@H]1CSCc2cccc(c2)CSC[C@@H](C(N)=O)NC(=O)[C@H](CO)NC(=O)[C@H](Cc2c[nH]c3ccccc23)NC(=O)[C@@H]2CCC(=O)NCCCC[C@H](NC1=O)C(=O)N1CCC[C@@H]1C(=O)N[C@@H](CC(=O)O)C(=O)N[C@@H](Cc1c[nH]c3ccccc13)C(=O)N[C@@H](CC(C)C)C(=O)N2)C(C)C) [3BP-3888] |  |  | 7.1 to 8
14 | {DOTA-APAc}-VYCE[dK]SWLEWSC-NH2 (linker 3-12 via mXylylene; lactam 5-9; reading uncertain) [3BP-4115] |  |  | 7.1 to 8
15 | Ac-VYCE[dP]EWLKWSC-NH2 (linker 3-12 via mXylylene; lactam 6-9; SMILES CC(=O)N[C@H](C(=O)N[C@@H](Cc1ccc(O)cc1)C(=O)N[C@H]1CSCc2cccc(c2)CSC[C@@H](C(N)=O)NC(=O)[C@H](CO)NC(=O)[C@H](Cc2c[nH]c3ccccc23)NC(=O)[C@@H]2CCCCNC(=O)CC[C@H](NC(=O)[C@H]3CCCN3C(=O)[C@H](CCC(=O)O)NC1=O)C(=O)N[C@@H](Cc1c[nH]c3ccccc13)C(=O)N[C@@H](CC(C)C)C(=O)N2)C(C)C) [3BP-3901] |  |  | 7.1 to 8
16 | {DOTA-APAc}-VYCE[dP]DY(Bn)LTWSC-NH2 (linker 3-12 via mXylylene; not fully specified; reading uncertain) [3BP-4137] |  |  | 7.1 to 8
17 | {DOTA-APAc}-VYCE[dP]E(AGLU′)WLTWSC-NH2 (linker 3-12 via mXylylene; reading uncertain) [3BP-4120] |  |  | 7.1 to 8
18 | Ac-VYCE[dP]KWLDWSC-NH2 (linker 3-12 via mXylylene; lactam 6-9; SMILES CC(=O)N[C@H](C(=O)N[C@@H](Cc1ccc(O)cc1)C(=O)N[C@H]1CSCc2cccc(c2)CSC[C@@H](C(N)=O)NC(=O)[C@H](CO)NC(=O)[C@H](Cc2c[nH]c3ccccc23)NC(=O)[C@@H]2CC(=O)NCCCC[C@H](NC(=O)[C@H]3CCCN3C(=O)[C@H](CCC(=O)O)NC1=O)C(=O)N[C@@H](Cc1c[nH]c3ccccc13)C(=O)N[C@@H](CC(C)C)C(=O)N2)C(C)C) [3BP-4046] |  |  | 7.1 to 8
19 | {DOTA-APAc}-VYCE[dP]D[Phe(4-I)]LTWSC-NH2 (linker 3-12 via mXylylene; not fully specified; reading uncertain) [3BP-4134] | > 8 | 2.1 to 5 | 
20 | {DOTA-APAc″}-V[Dap]CE[dP]DWLTWDC-NH2 (lactam 2-11; linker 3-12 via mXylylene) [3BP-4176] | > 8 | 2.1 to 5 | 
21 | {DOTA-APAc″}-VYCE[dP]D[Af3(DImAc)]LTWSC-NH2 (linker 3-12 via mXylylene) [3BP-4341] | > 8 | 2.1 to 5 | 
22 | {DOTA-APAc″}-VYCE[dP]DW[Cha]TWSC-NH2 (linker 3-12 via mXylylene) [3BP-4143] | > 8 | 2.1 to 5 | 
